Source: publication PMC3927129 (Science (New York, N.Y.), 2011)

Target: the molecule itself
Assay: native MS

B1: subunit K of the Enterococcus hirae rotary ATPase (K10 membrane ring) (natural protein)
chain: MMDYLITQNGGMVFAVLAMATATIFSGIGSAKGVGMTGEAAAALTTSQPEKFGQALILQLLPGTQGLYGFVIAFLIFINLGSDMSVVQGLNFLGASLPIAFTGLFSGIAQGKVAAAGIQILAKKPEHATKGIIFAAMVETYAILGFVISFLLVLNA
stoichiometry N: 10
